Assay: soluble on expression in E. coli; label from the status in PepcDB or PDB records

Row | Sequence | soluble on expression in E. coli
1 | TVDKRYLNDEHFIDPELVSQRAAPLTEADKQILADKSLGYRVLNLTVDTYNDATTSRWHRSIGGYHAAKLQRYQDLIEHQLSKGNREVVNMLNTKYIIVPGENNRPSPMSNPDAYGPAWPAGSIRWVGNANEEMMALDSNRLTRDIAVVDERFSSESLKRLPALTDSTASISLKEYAPNRQVYEAVSTQPMLGIFSEIYYPHGWTATIDNQAVPIIRANYILRALEVPAGRHKIEFRFDPKSLHITEAIAKT | not soluble
2 | VAARTGNDPATDVRSTILTAAETCFERFGITKTTMEDVARAADMSRATVYRYFSDRESLIIESVARRARKNMKPARAFIAKWPTIEERLVEGICNNVESGLRDPMVHLLVSPSEMTLANSLLTTSGKAVELTSELWEPILRDAQEAGDIRADVDLALLCEWISELEIMCISQLNGGTGSLERFREKLRAFLVPSLLPAGN | not soluble
3 | VAEEATGDWGQIFTAFNELSQTLAEYEEERVKHRNELQQERDRFRRLFQSIPEPAVVVEYTGNKTLIHNVNEAFEETFGYEASNAVGGDINDFIVPDGSLEEAESIDQLSSSGKQVTHEVRREAADGKRDFLLRSTPAVDGE | not soluble
4 | VAEQKVKRNVELAGVDVILVHRMLKNEVPVSEYLFMTDVVAQCLDESVRKLATPLTHDFEGIGETSTHYIDLATSDMPPAVPDHSFFGLLWADVKFEWHALPYLLGFKKACAGFRSLGRGATEEPAEMG | not soluble
5 | VAKATNAPLSVSKIDFKRGDDGSGRLILKFDGQGATPDLRTQGGTVLVDLGTAVLPTVLQRQINVVDFATPVQRIDAKPMGKGAQLVLSTKGAFESLAYQTGDEYVVEIVPRKGEAAM | not soluble
6 | VDICNHALLVGFGRVGSLLGEKLMAQGIPLVVVETSRTRVDELRERGISAVLGNAANEEIMELAHLDCARWLLLTIPNGYEAGEIVASAREKCPNIEIIARAHYDDEVDYIIDRGANQVVMGEREIARAMLRLLETPPAG | not soluble
7 | VEPDIRTGTIQDVQHVVILMQENRSFDHYFGHLNGVRGFNDPRALKRQDGKPVWYQNYKYEFSPYHWDTKVTSAQWVSSQNHEWSAFHAIWNQGRNDKWMAVQYPEAMGYFKRGDIPYYYALADAFTLCEAYHQSMMGPTNPNRLYHMSGRAAPSGDGKDVHIGNDMGDGTIGASGTVDWTTYPERLSAAGVDWRVYQEGGYRSSSLWYLYVDAYWKYRLQEQNNYDCNALAWFRNFKNAPRDSDLWQRAMLARGVDQLRKDVQENTLPQVSWIVAPYCYCEHPWWGPSFGEYYVTRVLEALTSNPEVWARTVFILNYDEGDGFYDHASAPVPPWKDGVGLSTVSTAGEIEVSSGLPIGLGHRVPLIAISPWSKGGKVSAEVFDHTSVLRFLERRFGVVEENISPWRRAVCGDLTSLFDFQGAGDTQVAPDLTNVPQSDARKEDAYWQQFYRPSPKYWSYEPKSLPGQEKGQRPTLAVPYQLHATLALDIAAGKLRLTLGNDGMSLPGNPQGHSAAVFQVQPREVGNPRFYTVTSYPVVQESGEELGRTLNDELDDLLDANGRYAFEVHGPNGFFREFHGNLHLAAQMARPEVSVTYQRNGNLQLNIRNLGRLPCSVTVTPNPAYTREGSRRYELEPNQAISEVWLLRSSQGWYDLSVTASNTEANYLRRLAGHVETGKPSRSDPLLDI | not soluble
8 | VEQELATKMLQIQSKRFYLDVKQNRRGRFIKVAEIGADGRRSQIYLALSTAAEFRDHLSSFSDYYASLGPPNTDNLPEDGKLKSEMMIKDYRRYYLDLKENARGRFLRVSQTITRGGPRSQIALPAQGMIEFRDALTDLLEEFGAN | soluble
9 | VGDFNYYASANWSCEQSKVLYKDEQKVPYEYLRTTGKPKGAIFGLVAEGFFTSQDEITKSPVIEGFNNIQPGDIKYKDQNNDGVINDFDKVMIGGDKPLSYFGIDLGFEWRGLEFSMFWQGVYNKDVLMSDWNLLEGFQTQGQVYGQAYENMLDRWTPETAATATFPRLSAGGNKYNQGNGWGSSFWLRSGNYIRLKNVSLGYNLPDSFCRNYLGGARVKVFVSGQNLFTKAANELVDPEVSFGNYPLQRCISTGINVKF | not soluble
10 | VGDYGPFGFDPDEFDRVIREGSEGLRDAFERIGRFLSSSGAGTGWSAIFEDLSRRSRPAPETAGEAGDGVWAIYTVDADGGARVEQVYATELDALRANKDNTDPKRKVRFLPYGIAVSVLDDPVDEAQ | soluble
11 | VGSEVSDKRTCVSLTTQRLPVSRIKTYTITEGSLRAVIFITKRGLKVCADPQATWVRDVVRSMDRKSNTRNNMIQTKPTGTQQSTNTAVTLTG | soluble
12 | VINQVESASKVIDWPLALKRSANKADLAKEMLLGLVESLPETQLSIREAIDVQDIAQIKRLVHKLNGACCYTGTPNLAKITIQLETQLKMGLSTEELEPEFLEFFEHIEQVLFAVPEALKEMSEN | not soluble
13 | VKKNVSGEPYVEGSGSNDVRTGAPIDEIDRILLDQLSRDARTPNNALAALAGIAPSTCLGRVRSLIDRGVIRGFHADIDPATLGRDLQAMIAVRVQANARQHLGQLAEQLATLDEVLNVYFIAGADDYLIHVATASSEELRRFVLDHLSAHPAVASTETILIFEHVRPRHRAPRTEQSSGR | soluble
14 | VLASILLSQAAYESNYGSSLLSVKYHNIYSLPARPGQEHIYLKDNVYSKGKWQYQKVDFAVFRDWSSSMSSYLEELRQGRWGESTYKEVAGTTSYKVAAEKLQAAGFNSDPDYTKHLISIIETYNL | not soluble
15 | VLGAIENVEIADIKQAFTARIDTGATTSSLNAVDLQEFERNGSQWVRFHLVNQDVKADDGKLEWITAPVIRNVKIRQATADDAERRPVVELWIKLGAIHEKVQFTLADRSHMTHSVLLGREFIQDIAVVDVSKEFVQSKK | soluble
16 | VLKQGYMMKKGHRRKNWTERWFVLKPNIISYYVSEDLKDKKGDILLDENCCVESLPDKDGKKCLFLVKCFDKTFEISASDKKKKQEWIQAIHSTIHLLKLGS | soluble
17 | VLTELVDLPGGSFRMGSTRFYPEEAPIHTVTVRAFAVERHPVTNAQFAEFVSATGYVTVAEQPLDPGLYPGVDAADLCPGAMVFCPTAGPVDLRDWRQWWDWVPGACWRHPFGRDSDIADRAGHPVVQVAYPDAVAYARWAGRRLPTEAEWEYAARGGTTATYAWGDQEKPGGMLMANTWQGRFPYRNDGALGWVGTSPVGRFPANGFGLLDMIGNVWEWTTTEFYPHHRIDPPSTACCAPVKLATAADPTISQTLKGGSHLCAPEYCHRYRPAARSPQSQDTATTHIGFRCVADPVSG | soluble
18 | VNEIVVNPNATLDWQLALRQAAGKTDLARDMLQMLLDFLPEVRNKVEEQLVGENPEGLVDLIHKLHGSCGYSGVPRMKNLCQLIEQQLRSGTKEEDLEPELLELLDEMDNVAREASKILG | soluble
19 | VPEKFKLSTALMDVLGIEVETRPRIIAAIWHYVKARKLQNPNDPSFFNCDAALQKVFGEEKLKFTMVSQKISHHLSPPPP | soluble
20 | VPMHPFVKALQEHFTAHQNPEKAEPMARYMKNHFLFLGIQTPERRQLLKDIIQIHTLPDQKDFQIIIRELWDLPEREFQAAALDIMQKYKKHINETHIPFLEELIVTKSWWDSVDSIVPTFLGDIFLKHPELISAYIPKWIASDNIWLQRAAILFQLKYKQKMDEELLFWIIGQLHSSKEFFIQKAIGWVLREYAKTNPDVVWEYVQNNELAPLSKREAIKHIKQNYGINNEKIGETLS | soluble
21 | VPVPPAADHKGWDFVEGYFHQFFLTKKESPLLTQETQTQLLQQFHRNGTDLLDMQMHALLHQPHCGVPDGSDTSISPGRCKWNKHTLTYRIINYPHDMKPSAVKDSIYNAVSIWSNVTPLIFQQVQNGDADIKVSFWQWAHEDGWPFDGPGGILGHAFLPNSGNPGVVHFDKNEHWSASDTGYNLFLVATHEIGHSLGLQHSGNQSSIMYPTYWYHDPRTFQLSADDIQRIQHLYGEKCSSDIP | soluble

Reference: the DeepSol protein solubility set
